Assay [1] has as its target human TNFR1 (soluble recombinant protein) (human) (UniProt P19438). Briefly: phage ELISA, plate coated with 1 nM TNFRI, anti-M13-HRP; phage pre-treated 1 h room temp with 1 mg/ml trypsin; phage input 1.13E+10.
The target is the same in assay [2]. Nature of the assay: phage ELISA, plate coated with 1 nM TNFRI, anti-M13-HRP; phage pre-treated 1 h room temp with 10 ug/ml trypsin; phage input 1.13E+10. In general terms: ELISA stands for enzyme-linked immunosorbent assay.
Assay [3] has the same target. Nature of the assay: phage ELISA, plate coated with 1 nM TNFRI, anti-M13-HRP; phage pre-treated 1 h room temp with 100 ug/ml trypsin; phage input 1.13E+10.

Chain of human TNFR1 (soluble recombinant protein) (human) (P19438 41-201 limits assumed): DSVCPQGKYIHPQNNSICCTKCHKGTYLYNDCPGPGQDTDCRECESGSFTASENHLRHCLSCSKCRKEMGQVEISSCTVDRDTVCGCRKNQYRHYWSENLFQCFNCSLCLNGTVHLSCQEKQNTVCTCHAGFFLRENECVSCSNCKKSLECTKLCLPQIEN

Take DOM1h-131: the phage ELISA signal (read-out not named) in assay [1] is 0.183; in assay [2], 0.86; in assay [3], 0.284.

The record behind these values is patent US20100254995A1.
